B1: CPEB3 Ribozyme (parent)
chain: UAACAGGGGGCCACAGCAGAAGCGUUCACGUCGCAGCCCCUGUCAGAUUCUGGUGAAUCUGCGAAUUCUGCUGUAUAUCUC

Variants of: B1
Test: self-cleavage, relative activity (ratio to wild type); higher = more cleavage; in vitro, sequencing
Summary of the method: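 Barcoded CPEB3 ribozyme mutants, produced by rounds of error-prone PCR, self-cleaved while being transcribed with T7 RNA polymerase for 5 hours at 37°C and during a subsequent 15 min DNase I step before EDTA was added. Sequencing of template-switched cDNA on Illumina gave cleaved and total reads, and DNA sequencing assigned barcodes to variants. Each variant's relative activity is its cleaved/total read fraction divided by the unmutated ribozyme's fraction, averaged across three batches. A variant needed a minimum of 5 reads.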

In order of rising self-cleavage:
1. UAACAGGGGGCCACAGCAGAAGCGUUCACGUCGCAGCCCCUGUCUGAUUGUGGUGAAUCUGCGAAUUCUGCUGUAUAUCUC [A45U C50G]  0.06
2. UAACAGGGGGCCACAGCAGAAGCGUUCACGUCGCAGCCCCUGUCUGAUUCUGGUGAAUCUGCGAAUUCUGAUGUAUAUCUC [A45U C71A]  0.1
3. UAACAGGGGGCCACAGCAGAAGCGUUCACGUCGCAGCCCCUGUCUGAUUCUGGUGAAACUGCGAAUUCUGCUGUAUAUCUC [A45U U58A]  0.12
4. UAACAGGGGGCCACAGCAGAAGCGUUCACGUCGCAGCCCCUGUCUGAUUCUGGUGAAUCUGCGAAUUCUGUUGUAUAUCUC [A45U C71U]  0.13
5. UAACAGGGGGCCACAGCAGAAGCGUUCACGUCGCAGCCCCUGUCUGAUUCUGGUAAAUCUGCGAAUUCUGCUGUAUAUCUC [A45U G55A]  0.14
6. UAACAGGGGGCCACAGCAGAAGCGUUCACGUCGCAGCCCCUGUCUGAAUCUGGUGAAUCUGCGAAUUCUGCUGUAUAUCUC [A45U U48A]  0.15
7. UAACAGGGGGCCACAGCAGAAGCGUUCACGUCGCAGCCCCUGUCUGAUUAUGGUGAAUCUGCGAAUUCUGCUGUAUAUCUC [A45U C50A]  0.16
8. UAACAGGGGGCCACAGCAGAAGCGUUCACGUCGCAGCCCCUGUCUGAUUCUGGUGAAUCUGAGAAUUCUGCUGUAUAUCUC [A45U C62A]  0.17
9. UAACAGGGGGCCACAGCAGAAGCGUUCACGUCGCAGCCCCUGUCUGAUACUGGUGAAUCUGCGAAUUCUGCUGUAUAUCUC [A45U U49A]  0.17
10. UAACAGGGGGCCACAGCAGAAGCGUUCACGUCGCAGCCCCUGUCUGAUUCUGGUGAAUCUGCGAUUUCUGCUGUAUAUCUC [A45U A65U]  0.18
11. UAACAGGGGGCCACAGCAGAAGCGUUCACGUCGCAGCCCCUGUCUGAUUCUGGGGAAUCUGCGAAUUCUGCUGUAUAUCUC [A45U U54G]  0.21
12. UAACAGGGGGCCACAGCAGAAGCGUUCACGUCGCAGCCCCUGUCUGCUUCUGGUGAAUCUGCGAAUUCUGCUGUAUAUCUC [A45U A47C]  0.22
13. UAACAGGGGGCCACAGCAGAAGCGUUCACGUCGCAGCCCCUGUCUGAUUCUGGUGUAUCUGCGAAUUCUGCUGUAUAUCUC [A45U A56U]  0.23
14. UAACAGGGGGCCACAGCAGAAGCGUUCACGUCGCAGCCCCUGUCUGUUUCUGGUGAAUCUGCGAAUUCUGCUGUAUAUCUC [A45U A47U]  0.24
15. UAACAGGGGGCCACAGCAGAAGCGUUCACGUCGCAGCCCCUGUCUGAUUCUGGUUAAUCUGCGAAUUCUGCUGUAUAUCUC [A45U G55U]  0.24
16. UAACAGGGGGCCACAGCAGAAGCGUUCACGUCGCAGCCCCUGUCUGAUCCUGGUGAAUCUGCGAAUUCUGCUGUAUAUCUC [A45U U49C]  0.25
17. UAACAGGGGGCCACAGCAGAAGCGUUCACGUCGCAGCCCCUGUCUGAUUCUGGUGAAUCUGCGAAUUGUGCUGUAUAUCUC [A45U C68G]  0.25
18. UAACAGGGGGCCACAGCAGAAGCGUUCACGUCGCAGCCCCUGUCUGAUUCUGGUGAAUCUGCGAGUUCUGCUGUAUAUCUC [A45U A65G]  0.25
19. UAACAGGGGGCCACAGCAGAAGCGUUCACGUCGCAGCCCCUGUCUGAUUCUGGUGGAUCUGCGAAUUCUGCUGUAUAUCUC [A45U A56G]  0.27
20. UAACAGGGGGCCACAGCAGAAGCGUUCACGUCGCAGCCCCUGUCUGAUUCUGGUGAAUCUGCGUAUUCUGCUGUAUAUCUC [A45U A64U]  0.27
21. UAACAGGGGGCCACAGCAGAAGCGUUCACGUCGCAGCCCCUGUCUGAUUCUGGUGCAUCUGCGAAUUCUGCUGUAUAUCUC [A45U A56C]  0.28
22. UAACAGGGGGCCACAGCAGAAGCGUUCACGUCGCAGCCCCUGUCUGAUUCUGGUGAAUCUGCGAAUUCUACUGUAUAUCUC [A45U G70A]  0.29
23. UAACAGGGGGCCACAGCAGAAGCGUUCACGUCGCAGCCCCUGUCUGAUUCUCGUGAAUCUGCGAAUUCUGCUGUAUAUCUC [A45U G52C]  0.29
24. UAACAGGGGGCCACAGCAGAAGCGUUCACGUCGCAGCCCCUGUCUGAUUCUGGUGAACCUGCGAAUUCUGCUGUAUAUCUC [A45U U58C]  0.29
25. UAACAGGGGGCCACAGCAGAAGCGUUCACGUCGCAGCCCCUGUCUGAUUCUGGUGAAUCUGUGAAUUCUGCUGUAUAUCUC [A45U C62U]  0.31
26. UAACAGGGGGCCACAGCAGAAGCGUUCACGUCGCAGCCCCUGUCUGAUUCUGGUGAGUCUGCGAAUUCUGCUGUAUAUCUC [A45U A57G]  0.31
27. UAACAGGGGGCCACAGCAGAAGCGUUCACGUCGCAGCCCCUGUCUGAUUCAGGUGAAUCUGCGAAUUCUGCUGUAUAUCUC [A45U U51A]  0.33
28. UAACAGGGGGCCACAGCAGAAGCGUUCACGUCGCAGCCCCUGUCUGAUUCUGGUGAUUCUGCGAAUUCUGCUGUAUAUCUC [A45U A57U]  0.33
29. UAACAGGGGGCCACAGCAGAAGCGUUCACGUCGCAGCCCCUGUCUGAUUCUGGUGAAUCUGCGGAUUCUGCUGUAUAUCUC [A45U A64G]  0.33
30. UAACAGGGGGCCACAGCAGAAGCGUUCACGUCGCAGCCCCUGUCUGAUUCUGCUGAAUCUGCGAAUUCUGCUGUAUAUCUC [A45U G53C]  0.33
31. UAACAGGGGGCCACAGCAGAAGCGUUCACGUCGCAGCCCCUGUCUGACUCUGGUGAAUCUGCGAAUUCUGCUGUAUAUCUC [A45U U48C]  0.34
32. UAACAGGGGGCCACAGCAGAAGCGUUCACGUCGCAGCCCCUGUCUGAUUCUGGUGACUCUGCGAAUUCUGCUGUAUAUCUC [A45U A57C]  0.35
33. UAACAGGGGGCCACAGCAGAAGCGUUCACGUCGCAGCCCCUGUCUGAUUCUGGUGAAUCUGCGAAUUCUGCUGUGUAUCUC [A45U A75G]  0.35
34. UAACAGGGGGCCACAGCAGAAGCGUUCACGUCGCAGCCCCUGUCUGGUUCUGGUGAAUCUGCGAAUUCUGCUGUAUAUCUC [A45U A47G]  0.36
35. UAACAGGGGGCCACAGCAGAAGCGUUCACGUCGCAGCCCCUGUCUAAUUCUGGUGAAUCUGCGAAUUCUGCUGUAUAUCUC [A45U G46A]  0.41
36. UAACAGGGGGCCACAGCAGAAGCGUUCACGUCGCAGCCCCUGUCUGAUUCUGGUGAAUCUGGGAAUUCUGCUGUAUAUCUC [A45U C62G]  0.44
37. UAACAGGGGGCCACAGCAGAAGCGUUCACGUCGCAGCCCCUGUCUGAUUCGGGUGAAUCUGCGAAUUCUGCUGUAUAUCUC [A45U U51G]  0.46
38. UAACAGGGGGCCACAGCAGAAGCGUUCACGUCGCAGCCCCUGUCUGAUUCUGGUGAAUCUGCUAAUUCUGCUGUAUAUCUC [A45U G63U]  0.46
39. UAACAGGGGGCCACAGCAGAAGCGUUCACGUCGCAGCCCCUGUCUGAUUCUGGUGAAUCCGCGAAUUCUGCUGUAUAUCUC [A45U U60C]  0.46
40. UAACAGGGGGCCACAGCAGAAGCGUUCACGUCGCAGCCCCUGUCUGAUUCUGGUGAAUCUGCGAAUUCUGCUGUAUAUCUU [A45U C81U]  0.46
41. UAACAGGGGGCCACAGCAGAAGCGUUCACGUCGCAGCCCCUGUCUGAUUCUGGUGAAUCUACGAAUUCUGCUGUAUAUCUC [A45U G61A]  0.46
42. UAACAGGGGGCCACAGCAGAAGCGUUCACGUCGCAGCCCCUGUCUGAUUCCGGUGAAUCUGCGAAUUCUGCUGUAUAUCUC [A45U U51C]  0.48
43. UAACAGGGGGCCACAGCAGAAGCGUUCACGUCGCAGCCCCUGUCUGAUUCUGGUGAAUCUGCGAAUUCUGCUGUAUAUCUC [A45U]  0.51
44. UAACAGGGGGCCACAGCAGAAGCGUUCACGUCGCAGCCCCUGUCUGAUUCUGGAGAAUCUGCGAAUUCUGCUGUAUAUCUC [A45U U54A]  0.51
45. UAACAGGGGGCCACAGCAGAAGCGUUCACGUCGCAGCCCCUGUCUGAUUCUGGUGAAUCUGCGAAUUCUGCUGUAUGUCUC [A45U A77G]  0.52
46. UAACAGGGGGCCACAGCAGAAGCGUUCACGUCGCAGCCCCUGUCUGAUUCUGGCGAAUCUGCGAAUUCUGCUGUAUAUCUC [A45U U54C]  0.53
47. UAACAGGGGGCCACAGCAGAAGCGUUCACGUCGCAGCCCCUGUCUGAUUCUGGUGAAUCUGCGAAUUUUGCUGUAUAUCUC [A45U C68U]  0.53
48. UAACAGGGGGCCACAGCAGAAGCGUUCACGUCGCAGCCCCUGUCUGAUUCUGGUGAAUCUGCAAAUUCUGCUGUAUAUCUC [A45U G63A]  0.54
49. UAACAGGGGGCCACAGCAGAAGCGUUCACGUCGCAGCCCCUGUCUGAUUCUGGUGAAUCUGCGAAUUCUGCUGUUUAUCUC [A45U A75U]  0.55
50. UAACAGGGGGCCACAGCAGAAGCGUUCACGUCGCAGCCCCUGUCUGAUUCUGGUGAAUCUGCGAAUUCUGCUGUAUUUCUC [A45U A77U]  0.55
51. UAACAGGGGGCCACAGCAGAAGCGUUCACGUCGCAGCCCCUGUCUGAUUCUGUUGAAUCUGCGAAUUCUGCUGUAUAUCUC [A45U G53U]  0.58
52. UAACAGGGGGCCACAGCAGAAGCGUUCACGUCGCAGCCCCUGUCUGAUUCUGGUGAAUCUGCCAAUUCUGCUGUAUAUCUC [A45U G63C]  0.66
53. UAACAGGGGGCCACAGCAGAAGCGUUCACGUCGCAGCCCCUGUCUGAUUCUGGUGAAUCGGCGAAUUCUGCUGUAUAUCUC [A45U U60G]  0.68
54. UAACAGGGGGCCACAGCAGAAGCGUUCACGUCGCAGCCCCUGUCUGAUUCUGAUGAAUCUGCGAAUUCUGCUGUAUAUCUC [A45U G53A]  0.68
55. UAACAGGGGGCCACAGCAGAAGCGUUCACGUCGCAGCCCCUGUCGGAUUCUGGUGAAUCUGCGAAUUCUGCUGUAUACCUC [A45G U78C]  0.76
56. UAACAGGGGGCCACAGCAGAAGCGUUCACGUCGCAGCCCCUGUCUGAUUCUGGUGAAUCUGCGAAUUCUGCUGUAUAUUUC [A45U C79U]  0.77
57. UAACAGGGGGCCACAGCAGAAGCGUUCACGUCGCAGCCCCUGUCGGAUUCUGGUGAAUCUGCGAAUUCUGCUGUACAUCUC [A45G U76C]  0.79
58. UAACAGGGGGCCACAGCAGAAGCGUUCACGUCGCAGCCCCUGUCUGAUUCUGGUGAAUCUGCGAAUUCUGCUGUAUAUAUC [A45U C79A]  0.8
59. UAACAGGGGGCCACAGCAGAAGCGUUCACGUCGCAGCCCCUGUCGGAUUCUGGUGAAUCUGCGAAUUCUGCUGUAUAGCUC [A45G U78G]  0.81
60. UAACAGGGGGCCACAGCAGAAGCGUUCACGUCGCAGCCCCUGUCUGAUUCUGGUGAAUCUGCGAAUUCUGCUGUAUAUCUA [A45U C81A]  0.87
61. UAACAGGGGGCCACAGCAGAAGCGUUCACGUCGCAGCCCCUGUCGGAUUCUGGUGAAUCUGCGAAUUCUGCUGUAUAUCAC [A45G U80A]  0.91
62. UAACAGGGGGCCACAGCAGAAGCGUUCACGUCGCAGCCCCUGUCGGAUUCUGGUGAAUCUGCGAAUUCUGCUGUAUAUCCC [A45G U80C]  0.91
63. UAACAGGGGGCCACAGCAGAAGCGUUCACGUCGCAGCCCCUGUCGGAUUCUGGUGAAUCUGCGAAUUCUGCUGUAUAACUC [A45G U78A]  0.91
64. UAACAGGGGGCCACAGCAGAAGCGUUCACGUCGCAGCCCCUGUCGGAUUCUGGUGAAUCUGCGAAUUCUGCUGUAGAUCUC [A45G U76G]  0.97
65. UAACAGGGGGCCACAGCAGAAGCGUUCACGUCGCAGCCCCUGUCGGAUUCUGGUGAAUCUGCGAAUUCUGCUGUAUAUCGC [A45G U80G]  1.02
66. UAACAGGGGGCCACAGCAGAAGCGUUCACGUCGCAGCCCCUGUCUGAUUCUGGUGAAUCAGCGAAUUCUGCUGUAUAUCUC [A45U U60A]  1.09
67. UAACAGGGGGCCACAGCAGAAGCGUUCACGUCGCAGCCCCUGUCUGAUUCUGGUGAAUCUGCGAAUUCUGCUUUAUAUCUC [A45U G73U]  1.2
68. UAACAGGGGGCCACAGCAGAAGCGUUCACGUCGCAGCCCCUGUCUGAUUCUGGUGAAUCUGCGAAUUCUGCUAUAUAUCUC [A45U G73A]  1.23

Reference: the RNAGym collection of RNA variant scans (doi:10.1093/nar/gkz1192)
